No end group written: not given here.
T1: Interleukin-1α receptor on mouse Swiss/3T3 cells (mouse, UniProt P13504 20-576)
T1 construct: whole, on cells; also called Interleukin-1α (assay target)
T1 sequence (looked up): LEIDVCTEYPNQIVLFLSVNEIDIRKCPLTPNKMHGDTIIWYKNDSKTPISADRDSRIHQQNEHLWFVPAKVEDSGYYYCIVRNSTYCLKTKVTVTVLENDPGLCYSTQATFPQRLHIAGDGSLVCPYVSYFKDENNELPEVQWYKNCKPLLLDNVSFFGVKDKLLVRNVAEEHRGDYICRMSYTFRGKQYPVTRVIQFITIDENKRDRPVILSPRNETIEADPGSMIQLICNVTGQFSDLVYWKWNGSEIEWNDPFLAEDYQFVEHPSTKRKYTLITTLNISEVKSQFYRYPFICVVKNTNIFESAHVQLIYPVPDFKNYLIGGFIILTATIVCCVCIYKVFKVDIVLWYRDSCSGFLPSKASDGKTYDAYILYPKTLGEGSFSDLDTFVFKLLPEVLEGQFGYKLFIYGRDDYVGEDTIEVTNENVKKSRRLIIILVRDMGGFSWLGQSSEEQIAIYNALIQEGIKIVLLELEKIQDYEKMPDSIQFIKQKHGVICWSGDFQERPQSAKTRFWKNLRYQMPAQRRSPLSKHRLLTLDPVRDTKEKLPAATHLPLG

T2: Cyclooxygenase-2 from sheep placenta (sheep, UniProt P79208 17-603)
T2 sequence (looked up): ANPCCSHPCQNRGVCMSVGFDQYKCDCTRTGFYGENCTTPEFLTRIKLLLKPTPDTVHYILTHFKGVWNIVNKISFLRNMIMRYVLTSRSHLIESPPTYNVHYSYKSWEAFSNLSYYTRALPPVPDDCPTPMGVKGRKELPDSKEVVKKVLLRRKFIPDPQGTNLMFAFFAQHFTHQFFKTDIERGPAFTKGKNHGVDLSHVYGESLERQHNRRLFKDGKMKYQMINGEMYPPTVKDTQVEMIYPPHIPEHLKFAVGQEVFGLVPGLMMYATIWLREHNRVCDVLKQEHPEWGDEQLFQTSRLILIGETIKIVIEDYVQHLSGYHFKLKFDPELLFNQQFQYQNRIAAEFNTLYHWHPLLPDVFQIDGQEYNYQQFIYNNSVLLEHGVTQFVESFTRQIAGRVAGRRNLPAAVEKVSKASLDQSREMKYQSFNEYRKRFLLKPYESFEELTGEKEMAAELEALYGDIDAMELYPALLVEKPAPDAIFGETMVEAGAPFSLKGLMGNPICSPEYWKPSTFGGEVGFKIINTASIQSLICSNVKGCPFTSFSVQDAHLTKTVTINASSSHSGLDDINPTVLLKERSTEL

T3: Cyclooxygenase-1 from ram seminal vesicle (ram (sheep), UniProt P05979 25-600)
T3 sequence (looked up): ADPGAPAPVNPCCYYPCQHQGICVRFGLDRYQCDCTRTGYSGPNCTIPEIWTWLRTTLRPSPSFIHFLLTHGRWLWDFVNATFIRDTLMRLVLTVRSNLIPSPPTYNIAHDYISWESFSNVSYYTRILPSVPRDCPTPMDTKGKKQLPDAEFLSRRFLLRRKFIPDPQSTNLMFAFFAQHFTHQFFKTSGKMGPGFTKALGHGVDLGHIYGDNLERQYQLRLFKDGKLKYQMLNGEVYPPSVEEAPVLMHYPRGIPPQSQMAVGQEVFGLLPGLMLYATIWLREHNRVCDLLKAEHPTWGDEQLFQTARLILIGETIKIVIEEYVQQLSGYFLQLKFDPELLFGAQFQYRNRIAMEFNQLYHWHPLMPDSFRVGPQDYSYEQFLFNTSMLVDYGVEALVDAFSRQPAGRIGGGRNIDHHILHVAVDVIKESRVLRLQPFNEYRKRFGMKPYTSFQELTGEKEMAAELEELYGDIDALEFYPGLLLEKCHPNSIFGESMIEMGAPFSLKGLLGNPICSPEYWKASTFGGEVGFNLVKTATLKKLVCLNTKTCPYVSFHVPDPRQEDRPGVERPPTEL


Columns and labels:
[1] = target: T1, Interleukin-1α receptor on mouse …; test: historical value of the assay laboratory, saturation analysis of [125I]IL-1 alpha on mouse Swiss/3T3 cells
[2] = target: Protein kinase C - γ, rabbit brain (recombinant) (rabbit, UniProt P10829 1-697, limits assumed); test: cell-based or functional assay
[3] = target: Phospholipase A2 from porcine pancreas (porcine, UniProt P00592 23-146); test: cell-based or functional assay
Sequence of Phospholipase A2 from porcine pancreas (P00592 23-146): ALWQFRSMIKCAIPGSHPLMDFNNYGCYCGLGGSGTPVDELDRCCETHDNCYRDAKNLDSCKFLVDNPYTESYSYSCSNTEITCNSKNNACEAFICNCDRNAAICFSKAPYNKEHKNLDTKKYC

[4] = target: Collagenase IV from human U937 cells (human, UniProt P14780 107-707); test: cell-based or functional assay
Sequence of Collagenase IV from human U937 cells (P14780 107-707): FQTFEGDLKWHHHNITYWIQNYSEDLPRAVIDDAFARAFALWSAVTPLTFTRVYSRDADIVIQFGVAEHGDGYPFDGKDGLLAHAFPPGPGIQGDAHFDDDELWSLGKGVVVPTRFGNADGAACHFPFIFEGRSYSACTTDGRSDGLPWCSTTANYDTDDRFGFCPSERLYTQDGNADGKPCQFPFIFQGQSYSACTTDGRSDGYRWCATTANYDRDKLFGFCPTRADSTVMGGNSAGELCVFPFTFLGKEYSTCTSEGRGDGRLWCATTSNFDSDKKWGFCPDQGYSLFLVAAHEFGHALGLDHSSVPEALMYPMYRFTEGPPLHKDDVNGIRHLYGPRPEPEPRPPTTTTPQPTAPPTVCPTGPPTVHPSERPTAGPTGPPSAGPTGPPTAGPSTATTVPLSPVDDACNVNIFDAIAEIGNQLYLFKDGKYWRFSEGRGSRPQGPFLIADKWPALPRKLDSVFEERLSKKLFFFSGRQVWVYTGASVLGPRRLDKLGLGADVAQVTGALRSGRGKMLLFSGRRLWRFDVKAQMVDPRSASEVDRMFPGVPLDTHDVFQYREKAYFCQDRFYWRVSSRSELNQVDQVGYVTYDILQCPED

[5] = target: T2, Cyclooxygenase-2 from sheep placenta; test: cell-based or functional assay
[6] = target: Protein kinase C, non-selective, from rat brain (rat); test: cell-based or functional assay
[7] = target: Ca++/calmodulin dependent protein kinase II from rat brain (rat); test: cell-based or functional assay
[8] = target: T3, Cyclooxygenase-1 from ram seminal …; test: cell-based or functional assay
[9] = target: Galanin receptor of rat ileum (rat); test: cell-based or functional assay

Binder | Kd [1] [nM] | % Inhibition of enzyme activity, peptide 100.0 µM [2] [%] | % Inhibition of enzyme activity, peptide 300.0 µM [3] [%] | % Inhibition of enzyme activity, peptide 100.0 µM [4] [%] | % Inhibition of enzyme activity, peptide 300.0 µM [5] [%] | % Inhibition of enzyme activity, peptide 300.0 µM [6] [%] | % Inhibition of enzyme activity, peptide 100.0 µM [7] [%] | % Inhibition of enzyme activity, peptide 300.0 µM [8] [%] | Agonism (contraction of rat ileum relative to 0.1 µM galanin), peptide 30 µM [9] [%]
Interleukin-1α (ligand, UniProt P01583 113-271, looked up, 125I label on the radioligand, also called IL-1 alpha; [125I]IL-1 alpha) SAPFSFLSNVKYNFMRIIKYEFILNDALNQSIIRANDQYLTAAALHNLDEAVKFDMGAYKSSKDDAKITVILRISKTQLYVTAQDEDQPVLLKEMPEIPKTITGSETNLLFFWETHGTKNYFTSVAHPNLFIATKQDYWVCLAGGPPSITDFQILENQA | 0.18 | – | – | – | – | – | – | – | –
LPPSR (also: at least one D-amino acid, position not given here) | – | -6 | -11 | 2 | 2 | -6 | 12 | 2 | 0
